B1: smURFP: small ultra-red fluorescent protein, SEQ ID NO: 13, homodimer, covalently attaches biliverdin (protein)
chain: MKTSEQRVNIATLLTENKKKIVDKASQDLWRRHPDLIAPGGIAFSQRDRALCLRDYGWFLHLITFCLLAGDKGPIESIGLISIREMYNSLGVPVPAMMESIRCLKEASLSLLDEEDANETAPYFDYIIKAMS
modifications: homodimer; biliverdin chromophore; smRUFP Variant Polypeptide
B2: smURFP + BVMe2: smURFP with a single biliverdin dimethyl ester chromophore (protein)
chain: B1 chain
modifications: left off: small tags and cut ends
notes: smURFP with a single biliverdin dimethyl ester chromophore

Tests used:
PC3 cells = assay: Photobleaching FP or FP fusions in mammalian cells; type: cell-based; conditions: for t50%, time to bleach for 50% emission intensity / A1, Double Exportential Decay Fit / A2, Double Exportential Decay Fit / A, Single Exponential Decay Fit / k1, Double Exportential Decay Fit / k2, Double Exportential Decay Fit / k, Single Exponential Decay Fit: PC3 cells; for t50%, time to bleach for 50% emission intensity: 25 μM BV or 1 μM BVMe2 for 4 h; for A1, Double Exportential Decay Fit / A2, Double Exportential Decay Fit / A, Single Exponential Decay Fit / k1, Double Exportential Decay Fit / k2, Double Exportential Decay Fit / k, Single Exponential Decay Fit: photobleaching; for mammalian cell photostability t50%: time to bleach 50% from an initial emission rate of 1,000 photons per s
Description: PC3 cells were transfected with 2 μg of circular DNA+5 μl Lipofectamine 2000 (Life Technologies) in 2 ml Opti-MEM (Life Technologies) for 4-5 h, transfection media was discarded, prewarmed growth media was added, and protein was produced for 48 h. 25 μM BV or 1 μM BVMe2 was incubated for 4 h. Cells were photobleached with continuous light exposure from a 150 W xenon arc lamp with eGFP EX/EM=495(10)/535(25) nm, tdTomato EX/EM=540(25)/595(50) nm, mCherry EX/EM=580(20)/[…] nm, and smURFP EX/EM=628(40)/680(30) nm focused with a 40×, 1.2 numerical aperture C-Apochromat oil-immersion lens on aZeiss Axiovert 200M inverted microscope. Photobleaching times were normalized to reflect an initial illumination intensity producing 1,000 photons per fluorescent molecule per second as previously described^37. Data was fit to a single exponential decay (F=A [exp^−kt]), where F is fluorescence that varies as a function of time, A is the fit normalized, initial fluorescence (should be 1), k is the rate of fluorescence decay (photobleaching), and t is time in s, or a double exponential decay (F=A1[exp^−k1^t]+A2[exp^−k2^t]), where F is fluorescence that varies as a function of time, A1 and A2 are the fit normalized, initial fluorescence (sum should be 1), k1 and k2 are the rates of fluorescence decay (photobleaching), and t is time in seconds, and data is shown in Table 6.

HEK293A cells = assay: Fluorescence imaging of FPs in HEK293A cells with chromophore addition or HO-1 expression; type: cell-based
Text: smURFP codons were optimized for human cell expression, and the gene was created by GenScript. smURFP, TDsmURFP (created from mammalian-optimized smURFP), IFP1.4 (mammalian-optimized form^35), IFP2.0 (mammalian-optimized form^46), and iRFP713 (mammalian-optimized form^36) were PCR amplified using Phusion High-Fidelity DNA Polymerase (NEB) with primers containing 5′ HindIII and 3′ XhoI restriction enzyme sites. HindIII-HF and XhoI (NEB)-digested PCR fragments were gel purified (Zymoclean Gel DNA Recovery Kit) and were ligated (T4 DNA Ligase, Life Technologies) into a similarly digested pCDNA3-IRES-eGFP vector (bicistronic to express two FPs in the same cell). For creation of HO-1-expressing mammalian vec-tors, the Synechocystis HO-1 was used, and the codons were not optimized for mammalian expression. Synechocystis HO-1 was directly amplified from the pBAD vector using primers containing 5′ BsiWI and 3′ XbaI restriction enzyme sites. pCDNA3 smURFP, TDsmURFP, IFP1.4, IFP2.0, or iRFP713-IRES-eGFP vectors were digested with BsiWI and XbaI (NEB), dephosphorylated (SAP, Roche), gel purified (Zymoclean Gel DNA Recovery Kit), and ligated (T4 DNA Ligase, Life Technologies) with similarly digested, purified HO-1 PCR fragment. For creation of smURFP fusions, smURFP was PCR amplified using Phusion High-Fidelity DNA Polymerase (NEB) with primers containing 5′ AgeI and 3′ NotI restriction enzyme sites for N-terminal fusions or with primers containing 5′ AgeI and 3′ BspEI restriction enzyme sites for C-terminal fusions. mGeos2-VEL-ManII-N-10 (Addgene 57551) and Dronpa-PDHA1-N-10 (Addgene 57292) vectors were digested with AgeI and NotI (NEB) and mCherry-αTubulin-C-18 (Addgene 55148) and tdTomato-LaminB1-10 (Addgene 58107) were digested with AgeI and BspEI, dephosphorylated (SAP, Roche), gel purified (Zymoclean Gel DNA Recovery Kit), and ligated (T4 DNA Ligase, Life Technologies) with similarly digested, purified smURFP PCR fragment. HEK293A (Invitrogen, Life Technologies), HT1080 (ATCC), and PC3 (ATCC) cells were grown in Dulbecco's Modified Eagle's medium (DMEM, Corning), supplemented with 10% FBS (Atlanta Biologicals)+1×penicillin—streptomycin (Fisher Scientific), which is referred to as growth media, on poly-D-lysine-coated glass-bottom culture dishes (MatTek, No. P35G-0-14-C). The HEK cell line is listed in the ICLAC and NCBI biosample databases and is commonly misidentified as the HeLa cell line. For expression of exogenous fluorescent proteins, there is no problem if there is a contaminating cell line because no endogenous biology or therapeutic results are being determined. HEK293A cells were purchased from Invitrogen (Life Technologies), and all experiments are derived from the same expanded frozen stock without cell line authentication or mycoplasma detection. Cells were transfected using 2 μg of circular DNA+5 μl Lipofectamine 2000 (Life Technologies) in 2 ml Opti-MEM (Life Technologies) for 4-5 h, transfection media was discarded, and prewarmed growth media was added. Chromophores (5 mM in DMSO) were added at indicated concentrations to growth media, warmed for 10-15 min at 37° C., and added to cells. For multiple timepoints, incubations were staggered to maintain equivalent incubation. Prior to imaging, cells were washed 1×2 ml growth media, 2×2 ml imaging solution, and imaged in 2 ml imaging solution. Fluorescence imaging was performed on a Zeiss Axiovert 200M inverted microscope controlled by SlideBook software. FPs were imaged with the following settings: eGFP, EX/EM=495(10)/535(25) nm, tdTomato EX/EM=540(25)/595(50) nm; mCherry and mCardinal, EX/EM=580(20)/653(95) nm; smURFP and TDsmURFP, EX/EX=628(40)/680(30) nm; and IFP1.4, IFP2.0, and iRFP713, EX/EM=665(45)/725(50) nm. […]

Molecule	t50%, time to bleach for 50% emission intensity (PC3 cells) [s]	A1, Double Exportential Decay Fit (PC3 cells)	A2, Double Exportential Decay Fit (PC3 cells)	A, Single Exponential Decay Fit (PC3 cells)	k1, Double Exportential Decay Fit (PC3 cells) [s⁻¹]	k2, Double Exportential Decay Fit (PC3 cells) [s⁻¹]	k, Single Exponential Decay Fit (PC3 cells) [s⁻¹]	mammalian cell photostability t50% (PC3 cells) [s]	average time to bleach 50% emission, t50% (PC3 cells; with BV, mammalian cells (n=5)) [s]	average time to bleach 50% emission, t50% (PC3 cells; with BVMe2, mammalian cells (n=5)) [s]	brightness in cell culture compared with other FPs (HEK293A cells)	fold increase in fluorescence with HO-1+5-ALA+FeSO4 (HEK293A cells; HEK293A cells) [fold]	fold increase in fluorescence with expression of HO-1 (HEK293A cells; HEK293A cells) [fold]	fold increase in fluorescence with 25 μM BV (HEK293A cells; HEK293A cells, 3 h) [fold]	fold increase in fluorescence with 25 μM BVMe2 relative to 25 μM BV (HEK293A cells; HEK293A cells, 3 h) [fold]	fold increase in fluorescence with 25 μM PCB relative to 25 μM BV (HEK293A cells; HEK293A cells, 3 h) [fold]	fluorescence relative to eGFP expressed from IRES (HEK293A cells; HEK293A cells, in the presence of BVMe2)	fold brighter than IFP2.0 or iRFP713 (HEK293A cells; HEK293A cells) [fold]	fold increase in fluorescence relative to smURFP (HEK293A cells; HEK293A cells, chromophore incubation 3 h) [fold]
B1	410	0.23	0.72	0.75	0.00024	0.0022	0.0008	570	570	340	comparable brightness to eGFP and is brighter than mCherry, mCardinal, IFP1.4, IFP2.0, and iRFP713	7.7	2.8	4.7	18	10	five-fold greater fluorescence	–	–
B2	190	0.42	0.57	0.73	0.020	0.0012	0.0015	340	–	–	–	–	–	–	–	–	–	7	> 32

From patent US10501502B2, “Allophycocyanin alpha-subunit evolved labeling proteins (smURFPs)” (The Regents of the University of California, priority 2016, dated 2019)
